Assay results taken from IntAct's records for PubMed 22483987.

B1: Glutamate receptor ionotropic, kainate 2 (Rattus norvegicus (Rat)), P42260 (parent)
chain: MKIISPVLSNLVFSRSIKVLLCLLWIGYSQGTTHVLRFGGIFEYVESGPMGAEELAFRFAVNTINRNRTLLPNTTLTYDTQKINLYDSFEASKKACDQLSLGVAAIFGPSHSSSANAVQSICNALGVPHIQTRWKHQVSDNKDSFYVSLYPDFSSLSRAILDLVQFFKWKTVTVVYDDSTGLIRLQELIKAPSRYNLRLKIRQLPADTKDAKPLLKEMKRGKEFHVIFDCSHEMAAGILKQALAMGMMTEYYHYIFTTLDLFALDVEPYRYSGVNMTGFRILNTENTQVSSIIEKWSMERLQAPPKPDSGLLDGFMTTDAALMYDAVHVVSVAVQQFPQMTVSSLQCNRHKPWRFGTRFMSLIKEAHWEGLTGRITFNKTNGLRTDFDLDVISLKEEGLEKIGTWDPASGLNMTESQKGKPANITDSLSNRSLIVTTILEEPYVLFKKSDKPLYGNDRFEGYCIDLLRELSTILGFTYEIRLVEDGKYGAQDDVNGQWNGMVRELIDHKADLAVAPLAITYVREKVIDFSKPFMTLGISILYRKPNGTNPGVFSFLNPLSPDIWMYILLAYLGVSCVLFVIARFSPYEWYNPHPCNPDSDVVENNFTLLNSFWFGVGALMQQGSELMPKALSTRIVGGIWWFFTLIIISSYTANLAAFLTVERMESPIDSADDLAKQTKIEYGAVEDGATMTFFKKSKISTYDKMWAFMSSRRQSVLVKSNEEGIQRVLTSDYAFLMESTTIEFVTQRNCNLTQIGGLIDSKGYGVGTPMGSPYRDKITIAILQLQEEGKLHMMKEKWWRGNGCPEEESKEASALGVQNIGGIFIVLAAGLVLSVFVAVGEFLYKSKKNAQLEKRSFCSAMVEELRMSLKCQRRLKHKPQAPVIVKTEEVINMHTFNDRRLPGKETMA

Variants of: B1
Conditions: with MAP3K11, Q16584
Chain of MAP3K11, Q16584 (Q16584 whole entry, looked up): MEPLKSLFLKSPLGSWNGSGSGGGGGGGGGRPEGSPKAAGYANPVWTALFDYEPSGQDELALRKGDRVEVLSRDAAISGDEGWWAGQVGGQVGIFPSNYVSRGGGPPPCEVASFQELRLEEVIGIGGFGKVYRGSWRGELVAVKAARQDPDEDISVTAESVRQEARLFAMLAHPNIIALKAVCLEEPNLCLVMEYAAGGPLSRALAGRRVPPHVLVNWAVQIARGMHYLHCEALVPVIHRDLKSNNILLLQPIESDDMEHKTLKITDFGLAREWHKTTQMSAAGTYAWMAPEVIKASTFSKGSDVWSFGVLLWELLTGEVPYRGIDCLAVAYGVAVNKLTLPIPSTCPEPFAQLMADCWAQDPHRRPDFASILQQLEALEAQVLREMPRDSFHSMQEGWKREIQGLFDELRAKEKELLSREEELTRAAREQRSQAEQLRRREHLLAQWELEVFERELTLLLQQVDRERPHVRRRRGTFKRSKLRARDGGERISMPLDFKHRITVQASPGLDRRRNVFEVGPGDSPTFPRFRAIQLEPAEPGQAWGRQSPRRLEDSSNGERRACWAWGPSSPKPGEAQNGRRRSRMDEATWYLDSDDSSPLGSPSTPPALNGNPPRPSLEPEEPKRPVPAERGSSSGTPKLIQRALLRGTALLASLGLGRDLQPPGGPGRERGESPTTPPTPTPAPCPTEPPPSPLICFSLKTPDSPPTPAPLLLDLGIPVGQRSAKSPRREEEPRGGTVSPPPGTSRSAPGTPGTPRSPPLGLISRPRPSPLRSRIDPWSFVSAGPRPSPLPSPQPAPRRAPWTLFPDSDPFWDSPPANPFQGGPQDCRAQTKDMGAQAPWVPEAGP

Variant	effect of a mutation on the interaction
K886R	decreasing interaction
